Target: T1, exosome core with Rrp42 N9A (state A mutant) (UniProt Q9UXC2 1-248; Q9UXC0 1-275, N9A)
T1 sequence 1: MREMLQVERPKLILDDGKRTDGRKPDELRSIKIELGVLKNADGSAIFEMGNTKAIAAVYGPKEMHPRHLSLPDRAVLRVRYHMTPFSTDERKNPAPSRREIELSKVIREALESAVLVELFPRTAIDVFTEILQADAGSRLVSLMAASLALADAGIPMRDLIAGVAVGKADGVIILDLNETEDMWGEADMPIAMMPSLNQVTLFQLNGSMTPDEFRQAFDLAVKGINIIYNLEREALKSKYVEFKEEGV
T1 sequence 2: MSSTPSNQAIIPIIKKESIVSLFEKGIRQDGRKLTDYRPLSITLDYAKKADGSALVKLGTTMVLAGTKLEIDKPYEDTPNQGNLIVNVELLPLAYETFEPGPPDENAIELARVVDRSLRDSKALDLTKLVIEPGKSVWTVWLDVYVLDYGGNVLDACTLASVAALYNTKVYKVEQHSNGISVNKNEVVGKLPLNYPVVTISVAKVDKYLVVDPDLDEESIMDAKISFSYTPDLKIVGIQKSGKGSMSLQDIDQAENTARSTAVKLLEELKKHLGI
Experiment: methyl TROSY NMR spectra of free and cap-bound exosome core

B1: Rrp4 (exosome cap protein) (natural protein)
chain: MNMSQSQKIVLQPRSIVVPGELLAEGEFQIPWSPYILKINSKYYSTVVGLFDVKDTQFEVIPLEGSFYYPKINDIVIGLVEDVEIYGWVVDIKAPYKAYLPASNLLGRSINVGEDLRRYLDVGDYVIARIENFDRSIDPVLSVKGKDLGRVSNGIVIDIMPVKVPRVIGKNKSMYETLTSKSGCSIFVANNGRIWATCPSRFSEEILIEAIRKIENESHIKGLTDRIKQFIEEKLGERNASSGETKTNS
binding result: binds

— publication PMC3840697 (Angewandte Chemie (International Ed. in English), 2013)
